Results published in publication PMC9521807.

Target: OsRMC-His (rice (Oryza sativa))
Test: BLI

MoCel6A (analyte of the binding kinetics) (enzyme)
Kd: 21.9 nM
koff: 0.000845 s⁻¹
kon: 38900 M⁻¹ s⁻¹
